Results: the nanobody polyreactivity screen of Harvey et al. (2022)

Assay: yeast display, Sf9 membrane polyspecificity reagent, FACS + sequencing; frameworks hold sequencing errors
Summary of the method: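 Galactose induction of a Saccharomyces cerevisiae BJ5465 synthetic nanobody display library ran 36–48 hours. The cells were then stained for 1 hour at 4 °C with 10% biotinylated, detergent-solubilized Sf9 membrane reagent, pulled down on streptavidin microbeads and FACS-sorted into low and high (top ~1%) gates on expression and reagent-binding fluorescence. Labels for polyreactivity follow the gate of origin.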

Row | Sequence | polyreactivity (PSR sort gate)
1 | QVQLVESGGGLVQAGGSLRLSCAASGSTVSSNAMGWFRLAPGQERELVAAIDRGGSTYYADSVKGRFTISRDNAKNTVYLQMNSRKPEDTAVYYCNADYYHLNSGMYYWGQGTQVTVSS | low polyreactivity
2 | QVQLVESGGGLLQAGGSLRLSCAASGFTFTTYAMGWYRQAPGKERELVAAITRRGGSTYYADSVKGRFTISRDNAKNTVYFQMNSLKPEDTAVYYCAAGGGWGLDYWGQGTQVTVSW | high polyreactivity
3 | QVQLVESGGGLVQAGGSLRLSCAASGSIFGQNAMGWYRQAPGKEMELVAAIRVSGGSTYYADSVKGRFTNSRDNAKNTVYLQKNSLKPEDTAVYYCNARYRGYYGPKTHGVTYYYWGQGTQVTVSS | low polyreactivity
4 | QVQLVESGGGLVQAGGSLRLSCAASGRIFRYYAMGWYRQAPGKERELVAAISGNGGRTSYADSVKGRFTISRDTAKNTVYLQMNSLNPEDTAVYYCAKYPVQSDYLFDHWGQGTQVTVSS | high polyreactivity
5 | QVQLVESGGGLVQAGGSLRLSSAASGFTFSLYRMGWYRQAPGKERELVASISNRGGTFYADSVKGRFTISRDNAKNTVYVQMNSLKPEETAVYYCARKTYYTGDFLGREYGYWGQGPQVTVSS | low polyreactivity
6 | QVQLVESGGGIVQAGGSLRLSCAASGRTFRINGMGWYRQAPGKERELIAAISDGGSTNYADSVKGRFTISRDNAKNTVYLQMNSLKPEDTAVYYCAVDPYYFFYDEWLGDPNFDYWGQGTQVTVSS | low polyreactivity
7 | QVQLVESGGGLVEAGGSLRLSCAASGSTVWRYAMGWYRQAPGKERELVAAISWNGGSTYYADSVKGRFTISRDNAKNTVYLQMHSLKPEDTAVYYCARGYSWSVGYPRVQDMDYWGQGTQVTVSS | high polyreactivity
8 | QVQLVESGGGLVQAGGSLRLSCAASGFTLAYYAMGWYRQAPGKERELVAAITADTGTTYYADSVKGRFTISRDNAKNTVYLQMNSLKPEDTAVYYCATRDVFYEDDYWGQGTQVTVSS | high polyreactivity
9 | QVQLVESGGGLVQAGGSLRLSCAASGRTFLYYAMGWYRQAPGKERELVAGITSGGSTNYADSVKGRFTISRDNAKNTVYLQMNSLKPEETAVYYCAARYFPRIQYGRKGYDYWGQGTQVTVSS | low polyreactivity
10 | QVQLVESGGGLVQAGGSLRLSCAASGSIINAYAMGWYRPAPGKERELVAAINSGGTTYYADSVKGRFTISRDNAKNTVYLQMISLKPEDTAVYYCNAVSKWAIYDYWGQGTQVTVSS | high polyreactivity
11 | QVQLVESGGGLVQAGGSLRLSCAASGRIFDQYALGWYRQAPRKESELVAFINRGGSTNYADSVKGRFTISRDNAKNTVYLQMNSLKPEDTEVYYCAADGDYYVESQTGHTYYYWGQGTQVTVSS | low polyreactivity
12 | QVQLVESGGGLVQAGGSLRLSCAASGSIFADNAMGWDRQAPGKERELVAAISRTGGSTYYADSVKGRFTISRDNSKNTVYLQMNSLKPEDTAVYYCAADNGYGRYRRYYYWGQGTQVTVSS | high polyreactivity
13 | QVHLVESGGGLVQAGGSLRLSFAASGRTFSTNAMGWYRQAPGKERELVAAISSTGGRTYYADSVKGRFTISRDNAKNTVYLQMNSLKPEDTAVYYCNTKLKGKGEGFDYWGQGTQVTVSS | high polyreactivity
14 | QVQLVESGGGLVQAGGSLRLSCAASGRTFDGNAMGWYRQAPGKERELVAAISKRGGTTYYADSVKGRFTISRDNAKNTVYLQMNSLKPEDTAVYYCAAPYNTYSYSEGEYWGQGTQVTVSS | low polyreactivity
15 | QVQLVESGGGLVQAGGSLRLSCAASGSIFKYNAMGWYRQAPGKERELVAAITIGGRTYYADSVKGRFTISRDNAKNTVYLQMNSLKPEDTAVYYCAGVVRALTIKYGYWGQGTQVTVSS | high polyreactivity
16 | HVQLVESGGGLVQEGRSLRLSCAASGFTFVGNAMGWYRQATGKERELVAAIRWSSGSTYYADSVKWRFTISRDNAKNTVYLQMNSLKPDDTAVYYCNAVYSVFYEYDYWGQGTQVTVSS | low polyreactivity

Row | Sequence | polyreactivity (PSR sort gate)
17 | QVQLVESGGGLVQAGGSLRLSCAASGIIFYFYAMGWYRQAPGKERELVAAITSSGGSTYYADSVKGRFTISRDNAKNTVYLQMNSLKPEDTAVYYCAADSLHGRKFRGVDYWGQGTQVTVSS | low polyreactivity
18 | QVQLVESGGGLVQAGGSLRLSFAASGIIFRYSAMGWYRQEPGKERELVAAISRSGARTYYADSVKGRFTISRDNAKNTVYLQMNSLKPEDTAVYYCATDPTSGRFYYWGQGTQVTVSS | high polyreactivity
19 | QVQLVESGGGLVQAGGSLRLSCAASGGIFYAYDMGWYRQAPGKERELVAAITWTGGTTYYADSVKGRFTISRDNAKNTVYLQMNSLKPEDTAVYYCAADDGTNSTARDKDDYYYWGQGTQVTVSS | low polyreactivity
20 | QVQLVESGGGLVQAGRSLRLSCAASGRTFGYNPMGWYRQAPGKEREFVAAISYSGTSTYYADSVKGRFTISRDNAKNTVYLQMNSLKPEDTAVYYCNAEALISWRYDYWGQGTQVTVSS | low polyreactivity
21 | QVQLVESGGGLVQAGGSLRLSCAASGSIFYYAMGWYRQAPGKERELVAAISSGGRTNYADSVKGRFTISRDNAKNTVYLQMNSLKPEDTAVYYCAAVSPYGSQYGYWGQGTQVTVSS | high polyreactivity
22 | QDQLVESGGGLVQAGGSLRLSCAASGRTFWYYAMGWYRQATGKERELVAAISSRGGTTYYADSVKGRFTISRDNAKNTVYLQMNSVKPEDTAVYYCASERWDLWLLYDYWGQGTQVTVSS | high polyreactivity
23 | QVQLVESGGGLVQAGGSLRLSCAASGRIFYVYAMGWYRQAPGKERELVAAITWRGGTTYYADSVKGRFTISRDNAKNTVYLQMNSLKPEDTAVYYCNAKYFRSYYSIEYDYWGQGTQVTVSS | low polyreactivity
24 | QVQLVESGGGLVQAGGRLRLTCAASGSIFPTYDLGWYRQAPGKERELVAAIRGDGSTNYADSVKGRFTISRDNAKNTVYVQMNSLKPEDTAVSYCAAVSSEYVFRYGGYWGQGTQVTVSS | low polyreactivity
25 | QVQLVESGGGLVQAGGRLRLSCADSGRTFYYYAMGWYRQAPGKERELVAAIRWRATSTFYADSVKGRFTISRDNAKNTVYLQMNSLKPEDTAVYYCATTGGYRLQAQKYYYWGQGTQVTLSS | high polyreactivity
26 | QVQLVESGGGLVQAGGSLRLSCAASGSIFDYYALGWYRQAPGKERELVATITSGVSTYYADSVKGRFTISRDNAKNTVYLQMNSLKPEDTAVYYCARDYAKSQDLYKYDYWGQGTQVTLSS | low polyreactivity
27 | QVQLVESGVGLVQGGGSLRLTCPASGFTFDWYAMGWYRPAPGKERELVAAISSSGTSTYYADSVKGRFTISRDTAKNTVYLQMNSLKPEDTAVYYCAARWYYVTPLRRYCYWGQGTQVTVSS | high polyreactivity
28 | QVQLVESGGGLVQAGGSLRLSCAASGITIYKYAMGWSRQAPGKERELVAVISRSGGSTYYADSVKGRFTISRDNAKNTVYLQMNSLKPEDTAVYYCAADYRYPRQSKYYYWGQGTQVTVSS | high polyreactivity
29 | QVQLVESGGGFVQAGRSLRLSCAASGSTFYIYAMGWSRQAPGKEREMVADISRGDSTNYADSVKGRFTISRDNAKNPVYLQLNSLKPEDTAVYYCNAAFRGERDWFSGRRYKFDYWGQGTQVTVSS | low polyreactivity
30 | QVQLVESGGGLVQAGGSLRLSCAASGSIFSSYAMGWYRQAPGKERELVAAISSSGDSTYADSVKGRFTISRDNAKNTVYLQMISLKPEDTAGYYCAVGGAGSDDYWGQGTQVTVSS | low polyreactivity
31 | QVQLVESGGGLVQAGGSLRLRCAASGSIFWRNAMGWYRQAPGKERELVAPISGNGGTTYYADSVKGRFTISRENAKNTVFLQMNSLKPEHTAVYYCPKVGKTYRTYEYWGQGTEVTVSS | high polyreactivity
32 | QVQLVESGGGLVQAGGSLRLSCAASGRTFYVYAMGWYRQAPGKERELVAAISWRGGSTYYADSVKGRFTISRDNAKNTVYLQMNSLKPEDTAVYYCATAGGDWYGVDYWGQGTQVTVSS | low polyreactivity
